In PMC6018538, “The CYP71AZ P450 Subfamily: A Driving Factor for the Diversification of Coumarin Biosynthesis in Apiaceous Plants” (Frontiers in Plant Science, 2018):

How the values were obtained:
CYP71AZ4 = CYP71AZ4 (Pastinaca sativa, UniProt A0A2Z5D854); conditions: read-out: Apparent affinity (μM) / CYP71AZ4; NADPH; product xanthotoxol
COc1cc2ccc(=O)oc2cc1O = test: cells, lysate or membranes; conditions: NADPH; product fraxetin
COc1ccc2cc(C)c(=O)oc2c1 = test: cells, lysate or membranes; conditions: NADPH; product 8-hydroxy-3-methyl-7-methoxycoumarin
COc1ccc2ccc(=O)oc2c1 = test: cells, lysate or membranes; conditions: NADPH; product daphnetin 7-methyl ether
COc1ccc2oc(=O)ccc2c1 = test: cells, lysate or membranes; conditions: NADPH; product scopoletin (P04)
[1] = substrate: O=c1ccc2cc(O)c(O)cc2o1; test: cells, lysate or membranes; conditions: NADPH; product 6,7,8-trihydroxycoumarin

CYP71AZ4, sequence (A0A2Z5D854 whole entry): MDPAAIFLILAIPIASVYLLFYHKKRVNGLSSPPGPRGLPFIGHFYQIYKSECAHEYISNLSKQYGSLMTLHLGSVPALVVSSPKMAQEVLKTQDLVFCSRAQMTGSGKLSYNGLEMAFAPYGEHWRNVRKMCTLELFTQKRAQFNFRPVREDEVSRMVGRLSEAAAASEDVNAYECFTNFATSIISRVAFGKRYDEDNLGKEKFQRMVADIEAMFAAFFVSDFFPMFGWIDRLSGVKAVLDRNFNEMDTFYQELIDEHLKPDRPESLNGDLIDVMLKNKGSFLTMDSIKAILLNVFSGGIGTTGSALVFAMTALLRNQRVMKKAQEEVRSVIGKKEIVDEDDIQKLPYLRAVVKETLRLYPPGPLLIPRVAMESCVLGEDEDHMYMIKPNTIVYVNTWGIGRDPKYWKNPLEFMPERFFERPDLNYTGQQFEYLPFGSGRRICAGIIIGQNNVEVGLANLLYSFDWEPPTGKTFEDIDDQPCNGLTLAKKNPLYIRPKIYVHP

O=c1ccc2cc3ccoc3cc2o1 [psoralen] was tested, and the Km (CYP71AZ4) was 11.3 ± 2.2 µM.

CYP71AZ4 (Pastinaca sativa) gave a Km (COc1cc2ccc(=O)oc2cc1O) of 762.2 ± 586.4 µM, a Km (COc1ccc2cc(C)c(=O)oc2c1) of 159.9 ± 41.1 µM and a Km (COc1ccc2ccc(=O)oc2c1) of 72.5 ± 15.2 µM. It also gave a Km (COc1ccc2oc(=O)ccc2c1) of 9.5 ± 1.5 µM.

B1: CYP71AZ3 (Pastinaca sativa) (protein)
chain: MEPVFLFLILAFPIASVYLLFYHKKRVVGLSAPPGPPGLPFIGNFHQLYKASSTHEYLWSLSKQYGSLVTLRMGSVPILVVSSPKMAKEVLQTQDLIYCSRPAMTGMQKLSYNGLDVAFSPYTDQWRHTRKFCTLELFTQKRAQLNFRPVREQEVSRMIARLSETAAASKDVNAYEWFSNLATCIISRVAFGKRYDEDGIGKERFQRMLSEIDAMFIGFFVSDFFPMFGWIDKLSGMRDRLDRTFKDLDMFYQELIDEHLKPNRLESPTEDLIDVMLKNEGSSLTKDSMKAILLNVFNGGTGTTATVLAWAMTALLRNQGVMKKAQEEIRSVIGKKGKVDEDDFPSLPYLRAVVKETMRLYPPAPVLVPRETMESSIIGEDKDHMYMVKPKTVVYISMWAIGRDPKTWKNPMEFVPERFLERPDINYKGQQFEYVPFGAGRRICAGINLGVTTVELALANLLYTFDWEPPAGMRFEDIDDETTNGLALQKKNALYIRPKKYMFP
In the case of B1, the Km [1] is reported as 248.6 ± 51.9 µM.
